Measurements: paper PMC7347944 (Communications Biology, 2020)

B1: huPrP(23−111) (domain or fragment)
chain: KKRPKPGGWNTGGSRYPGQGSPGGNRYPPQGGGGWGQPHGGGWGQPHGGGWGQPHGGGWGQPHGGGWGQGGGTHSQWNKPSKPKTNMKH
B2: full-length huPrP(23−230) (natural protein)
chain: not shown
B3: huPrP(23−144) (domain or fragment)
chain: KKRPKPGGWNTGGSRYPGQGSPGGNRYPPQGGGGWGQPHGGGWGQPHGGGWGQPHGGGWGQPHGGGWGQGGGTHSQWNKPSKPKTNMKHMAGAAAAGAVVGGLGGYMLGSAMSRPIIHFGSD

Biological target: T1, amyloid-β oligomers (UniProt P05067 672-713)
T1 construct: also called AβO; Aβ oligomers
Assay: co-sedimentation
Details: both partners purified

Binder	binding result
B1	binds
B2	binds
B3	binds
